Assay: soluble on expression in E. coli; label from the status in PepcDB or PDB records

| Sequence | soluble on expression in E. coli |
| --- | --- |
| AQPDIKFASKEYGVTIGESRIIYPLDAAGVMVSVKNTQDYPVLIQSRIYDENKEKESEDPFVVTPPLFRLDAKQQNSLRIAQAGGVFPRDKESLKWLCVKGIPPKDEDIWVDDATNKQKFNPDKDVGVFVQFAINNCIKLLVRPNELKGTPIQFAENLSWKVDGGKLIAENPSPFYMNIGELTFGGKSIPSHYIPPKSTWAFDLPKGLAGARNVSWRIINDQGGLDRLYSKNVTL | soluble |
| MASSEGLASVDPWSFRQNFNIDSWLLSDSFSHDSDILAKALHRSISTSTESSPLSPSSFFDSSTAAVDFSPPQTLSNVSFGSDPEIPAASALGLGKRKRGPGVSGGKQTKRRSRVSNKKSQTTFITADAANFRQMVQQVTGAKFLGSSNSIFAPIVKPEPHRLASRLPPSCGNLDRSSAVPTLDTSSFLSNHHQENIITDLGAPTGSFHHQSSAGTTTANVGGGSSAVELDSYPSFPTLESWKVM | not soluble |
| TQETFPPKYLHYDEETSHQLLCDKCPPGTYLKQHCTAKWKTVCAPCPDHYYTDSWHTSDECLYCSPVCKELQYVKQECNRTHNRVCECKEGRYLEIEFCLKHRSCPPGFGVVQAGTPERNTVCKRCPDGFFSNETSSKAPCRKHTNCSVFGLLLTQKGNATHDNICSGNSESTQKCGIDVTLCEEAFFRFAVPTKFTPNWLSVLVDNLPGTKVNAESVERIKRQHSSQEQTFQLLKLWKHQNKDQDIVKKIIQDIDLCENSVQRHIGHANLTFEQLRSLMESLPGKKVGAEDIEKTIKACKPSDQILKLLSLWRIKNGDQDTLKGLMHALKHSKTYHFPKTVTQSLKKTIRFLHSFTMYKLYQKLFLEMIGNQVQSVKISCL | not soluble |
| MKFIIKLFPEITIKSQSVRLRFIKILTGNIRNVLKHYDETLAVVRHWDNIEVRAKDENQRLTIRDALTRIPGIHHILEVEDVPFTDMHDIFEKALVQYRDQLDGKTFCVRVKRRGKHDFSSIDVERYVGGGLNQHIESARVKLTNPDVTVHLEVEDDRLLLIKGRYEGIGGFPIGTQEDVLSLISGGFDSGVSSYMLMRRGCRVHYCFFNLGGAAHEIGVRQVAHYLWNRFGSSHRVRFVAINFEPVVGEILEKIDDGQMGVILKRMMVRAASKVAERYGVQALVTGEALGQVSSQTLTNLRLIDNVSDTLILRPLISYDKEHIINLARQIGTEDFARTMPEYCGVISKSPTVKAVKSKIEAEEEKFDFSILDKVVEEANNVDIREIAQQTGQEVVEVETVNDFGPNDVILDIRSVDEQEDKPLKVEGIDVVSLPFYKLSTKFGDLDQNRTWLLWCERGVMSRLQALYLREQGFKNVKVYRP | not soluble |
| MAHHHHHHMKDIINSDFEDNKDERVIIVDENNEFQELKARKIMRMENLWHRSTSIFVFTKIGEEYFIYVHKRSKVKDYCPSYYSIGFGGVVSENEDMLGNAVKELEEESGIKKSPEQLFDLGVVKCDTECSRSFVGSYVSLTLGKPMPFDGVRPLRIFACSSGNFTLLLIPHAAFFRAVTPSPTGCLHRPRLPDHPPAE | soluble |
| MTENCCVPGGTVMILSCSGGSNVGQLSNQAAVELTREGVGKMFCLAGIGGQLSGFVQSARDVPEMVTIDGCSVGCAKAILEKARVPLKSYLVLTDLGIEKNKNFELSSHDIRRVKEAVKALLFEK | soluble |
| GHFAPQQMKEAIEIYKTLFEPSDVLDEPYVIVCLNTIVAENDDEAQYLASSMAQVMVSITRGRMQPVQPPTHDLQNILTPREYAMAMERQKISLIGSENTVQQKIQDFMETYGEVNEIMAISYIYDKDMQLDSYRRFKN | not soluble |
| MSLSIPREFSNAIRFLSIDATLKAKSGHPGMPMGMADIATVLWTKFLKHNPNNPHWINRDRFVLSNGHGSMLLYSLLHLTGYDLSIEDIKNFRQLHSKTPGHPEYGYTPGVETTTGPLGQGVANAVGMALGEKLLSDRYNTPDLKVIDHHTYVFLGDGCLMEGVSHEACSLAGTLGLNKLVAFWDDNNISIDGDTKGWFSDNTPERFRAYGWHVIENVDGHDFVAIEKAINEAHSQQQKPTLICCKTVIGFGSPEKAGTASVHGSPLSDQERASAAKELNWDYQAFEIPQDVYKYWDAREKGQALEANWQGQRNLFKDSPKFDEFERVLSKELPVGLESAINDYIASQLSNPVKVATRKASQMVLEVLCKNMPEMFGGSADLTGSNNTNWSGSVWLNNTQEGANYLSYGVREFGMAAIMNGLSLYGGIKPYGGTFLVFSDYSRNAIRMSALMKQPVVHVMSHDSIGLGEDGPTHQPIEHVPSLRLIPNLSVWRPADTIETMIAWKEAVKSKDTPSVMVLTRQNLMPVVQTQHQVANIARGGYLVKDNPDAKLTIVATGSEVELAVKVANEFEKKGIKLNVASIPCVEVFATQAHEYKKTVIKDDIPAVFVEMAQPDMWYKYMPKAGGEVKGIYSFGESAPAEDLFKRFGFTVENISNIVAKYV | soluble |
| MLEEEQALLEKVVETLSNDIEEKEEKIEKLRRSYTNGNGALANIYEDYRSGFKSGIGARPGR | not soluble |
| MHHHHHHSSGVDLGTENLYFQSMARPATVLGAMEMGRRMDAPTSAAVTRAFLERGHTEIDTAFVYSEGQSETILGGLGLRLGGSDCRVKIDTKAIPLFGNSLKPDSLRFQLETSLKRLQCPRVDLFYLHMPDHSTPVEETLRACHQLHQEGKFVELGLSNYAAWEVAEICTLCKSNGWILPTVYQGMYNAITRQVETELFPCLRHFGLRFYAFNPLAGGLLTGKYKYEDKDGKQPVGRFFGNTWAEMYRNRYWKEHHFEGIALVEKALQAAYGASAPSMTSATLRWMYHHSQLQGAHGDAVILGMSSLEQLEQNLAAAEEGPLEPAVVDAFNQAWHLVAHECPNYFR | soluble |
| MSDDGGFLSSQSSRELTEDDHEKLAKQTSISDFKRNKLEIDARKNWDKFYHRNKNNFFKDRNWSAEDLKMMCPDIDFEKEISYLEAGCGVGNMLFPLVAEIPNLKLFAFDFSDNAVKLLEERAKELELSVATSVVDLSIPSVSSPFEEQVDLATLIFVLSAIHPEKHQISAENVRKMIKIGGSVVVRDYGINDHAMIRFGREARISDRFYVRQDGTRAYYFDLNELSEVFEKSGFRCVRKEYLHRMTVNHQKGLKAPRIFVQARFIRES | not soluble |
| MMKIAIIGSGISGLTCGYYLHRYHDITLFEANDYIGGHTATVDVELAGKPYAVDTGFIVYNDRTYPNFIKMMDEIGVQGKPTQMSFSVRNDANGLEYNGHTLTTLFAQKRNWLNPKFYRFIAEILRFNRLTKACVDNQLANEQTLGDFLAQHQFSEYFCENYILPMGAAIWSSSLADMRAFPLMFFARFFLNHGLLDVTNRPQWYVIPGGSRSYIAPLTQGFGDRIRLNSAVTQVKRLPSGVEVVVNGRSERFDEVIFACHSDQALAMLSDASSTEQQLLSALAYQANEVVLHTDTRLLPKRKAAWAAWNYWLKGEANQETRLPSLTYNMNILQHIEAPETFCVTLNSSEDIDPSKILRRFTYHHPVFSRPAIEAQQKKAQISGVNHTWFCGAYWHNGFHEDGVRSALDVVTQLEAYAQRSEQGAALEHHHHHH | soluble |
| MGSDKIHHHHHHMLEQQATIVDVNESNLNQVLEHSATLPVLFYFWSARSQHCVELEPVLDKLAQEYAGQFVLAKVDCDAEQRVAAQFGLRSIPTVYLFKDGQPLDGFQGPQPEEAVRELLKRALPKEEELKVAQAQQLIQEDKLPEAMQLLKDAWQLSQQRSDIGLMLAEVQIQIKRSEDAEAVLAAIPLQDQDTRYHSLVAQIELLKQAADTPEIQHLQQQLDADPQNADLAVQLALQLHQVSRNEEALELLMGFLKKDLAVANGSARKTLMDIMAALGTSDALAARYRRQLYSLLY | not soluble |
| MAKPDQLELLFDVAPPADPASAAPPGAPPRKTPKARPAPPAPAAIATPCPDPLPPGARWREVHTEQQPIGFVLLRSRRRSIGFVVADDGLRVTAPNWVTLGQIDDAVREKARWILAKLRDWHARKEQLAMAHTRWQAGGELPYLGKRIVLGLGAERRQACLSGDADAPCDGDTLWLALPVDADQARIRDAAQAWLQQRAGAWFGARLAHFLQLTGLRIRRWRLSSAATRWGSCTSDGNIMLNWRLIHFAPAIIDYVIAHELAHLREMNHSQDFWTEVGHILPGFEDAKNVLRRHDPATLPQFLEHHHHHH | soluble |
| MGSDKIHHHHHHMSDLQSLQPKLLWQWFDQICAIPHPSYKEEQLAQFIINWAKTKGFFAERDEVGNVLIRKPATVGMENRKPVVLQAHLDMVPQANEGTNHNFDQDPILPYIDGDWVKAKGTTLGADNGIGMASALAVLESNDIAHPELEVLLTMTEERGMEGAIGLRPNWLRSEILINTDTEENGEIYIGCAGGENADLELPIEYQVNNFEHCYQVVLKGLRGGHSGVDIHTGRANAIKVLLRFLAELQQNQPHFDFTLANIRGGSIRNAIPRESVATLVFNGDITVLQSAVQKFADVIKAELALTEPNLIFTLEKVEKPQQVFSSQCTKNIIHCLNVLPNGVVRNSDVIENVVETSLSIGVLKTEDNFVRSTMLVRSLIESGKSYVASLLKSLASLAQGNINLSGDYPGWEPQSHSDILDLTKTIYAQVLGTDPEIKVIHAGLECGLLKKIYPTIDMVSIGPTIRNAHSPDEKVHIPAVETYWKVLTGILAHIPSR | not soluble |
| LKQRRKIANEVKIKNTLLEYAQQITQMGTFEYNVFTNTLFWSNEMYNIFELDRSVIPEINFIDSLIKEESEITHNRRKKNFQPGASYSDELKIRTVNGNEKVLISNGYVVNEENGLVVHGAIIDIT | not soluble |
| MQSAAVSGRLICNGRPAVDVKLKLYENEIFFDRLMEEGRTDSNGQFRVLGSKREITTIDPKLNVYHKCNYNGLCDQKFTIHIPKDYVTSGSQPSRTFDIGTLNLANNFPGQSTDCLN | not soluble |
| DDGEPYALCVVATDITDQKQRERELARLTDEYAAVFENTNDAIALVDIEEPADDPTFRYVRTNEAYERQTGFDTESLTGQTPVEAAGPDIGRRIADHYKQCVSAGEPITFEERDLHPTGVWETQVTPIAADG | not soluble |
| MFRTITSRLAFSVRQAEETVKPRIAYAQRSGRRIKEKVALMQAKRKEAGETGAPEKPGKFVLKTGKGTRDYGPAQSALRNSVLQTVTETFNRYGAETIDTPVFELRDVLMGKYGEEGGKLVYDLQDQGGELLSLRYDLTVPFARYLAMNKITNITRYQIAKVYRRDQPVMSRGRYREFYQCDFDIAGQYDLMLPEAECLGIVDELLTKLEIGEFFINLNHRLILEGMFAVSGIPAKDFKTICSSVDKLDKTPWEDVEQEMINEKFLTKEQTGKLGELVRFRELNSDLNNLELLEKMSQLPDLGQNDKFKKGAEELKVLIEYLNVDGVTTVRYEPSLARGLDYYTGAIYEAVAPKALEGTAVENSEDTAGQPVGVGSVAAGGRYDGLVKMFDSKANVPCCGVSFGIERLFAIMEARQKVAIRTTQTEVYVASAQKNLVRDRKKLVKMLRSAGIKTEMALKANPKLLTQFQYAEERRIPLAIVIGEQELKDGVVKLRNVVTRDEQTIKLDQLITAVRDTLAAL | not soluble |
| GPLGSPEFPHPLQDSWSYYLFQFRKALDWDECLEKVATFSTIEDFWSVLTHTVRPREITYGKDLYMFKSDIMPKWEDPKNENGGRWLINVTARQDVDFLWDELLMLLIGSDWDTDEEDRQICGAVFQPRSRGSKLSVWLTSDNEEETILSIGRRIKERLELEDTIYFQPVSDQRSQTRGSDICTGKYEI | soluble |
| MDQVVVFQKMFEQVRKEQNFSWFYSELKHHRIAHYIYYLATDNIRIITHDDTVLLLRGTRNLLKVSTTKNPAKIKEAALLHICGKSTFREYCSTLAGAGVFRWVTDVNHNKRSYYAIDNTLLYIEDVENNKPLILEHHHHHH | soluble |

Reference: the DeepSol protein solubility set
